Measured values as given in PMC10014064.

What was measured:
[1] = target: amyloid precursor protein (APP), mouse (mouse (endogenous in C57BL/6 hippocampus))
[2] = target: amyloid precursor protein (APP), mouse (mouse (endogenous in C57BL/6 hippocampus)); remark: listed apart in the source

- effect of ifenprodil (5 μM, GluN2B antagonist) on NMDAR EPSCs in infant neurons previously incubated with the Y188 antibody against the APP C-terminal, versus the control condition [1]: 19.8%
- reduction in NMDAR EPSCs in CA1 pyramidal neurons of infant mice with the APP C-terminal antibody Y188 (2.5 nM) in the recording pipette, compared with boiled Y188 [2]: 21.1%
Substance: GluN2B subunit of the NMDA receptor, mouse (from UniProt Q01097 27-1482)
